Source: patent US20100215684A1 (UNIVERSITY OF QUEENSLAND, published 2010)

Target: T1, Human fibrinogen (Sigma), biotinylated (human, UniProt P02671 20-629; P02675 31-491; P02679 27-437)
T1 construct: also called biotinylated fibrinogen
T1 sequence 1: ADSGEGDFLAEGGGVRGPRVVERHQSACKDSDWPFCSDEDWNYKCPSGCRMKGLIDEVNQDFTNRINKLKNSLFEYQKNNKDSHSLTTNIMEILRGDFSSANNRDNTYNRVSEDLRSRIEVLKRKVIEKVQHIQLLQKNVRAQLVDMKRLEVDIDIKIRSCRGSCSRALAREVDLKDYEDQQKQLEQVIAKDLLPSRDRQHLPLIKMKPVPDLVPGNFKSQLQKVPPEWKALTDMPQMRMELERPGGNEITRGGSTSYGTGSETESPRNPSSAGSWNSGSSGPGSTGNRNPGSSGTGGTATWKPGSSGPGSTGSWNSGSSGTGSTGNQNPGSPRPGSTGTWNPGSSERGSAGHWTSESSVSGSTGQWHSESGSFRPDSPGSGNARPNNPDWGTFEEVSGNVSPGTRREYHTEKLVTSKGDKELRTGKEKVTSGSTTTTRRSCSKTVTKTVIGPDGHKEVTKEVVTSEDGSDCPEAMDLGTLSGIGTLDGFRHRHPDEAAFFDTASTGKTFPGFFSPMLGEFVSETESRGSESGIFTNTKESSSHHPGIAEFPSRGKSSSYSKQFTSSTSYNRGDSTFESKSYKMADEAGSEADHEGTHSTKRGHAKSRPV
T1 sequence 2: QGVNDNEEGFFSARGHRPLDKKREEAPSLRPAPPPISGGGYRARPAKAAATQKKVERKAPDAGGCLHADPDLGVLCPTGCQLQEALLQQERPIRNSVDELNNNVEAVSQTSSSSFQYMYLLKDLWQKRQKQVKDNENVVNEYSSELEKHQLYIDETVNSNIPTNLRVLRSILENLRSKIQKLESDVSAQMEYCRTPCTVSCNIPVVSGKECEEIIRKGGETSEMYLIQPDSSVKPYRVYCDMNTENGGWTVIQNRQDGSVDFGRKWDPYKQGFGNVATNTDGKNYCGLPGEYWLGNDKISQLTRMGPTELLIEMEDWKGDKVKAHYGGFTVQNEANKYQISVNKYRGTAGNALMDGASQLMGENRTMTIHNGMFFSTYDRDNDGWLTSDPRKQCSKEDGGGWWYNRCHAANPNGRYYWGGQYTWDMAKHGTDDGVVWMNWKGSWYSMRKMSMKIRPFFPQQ
T1 sequence 3: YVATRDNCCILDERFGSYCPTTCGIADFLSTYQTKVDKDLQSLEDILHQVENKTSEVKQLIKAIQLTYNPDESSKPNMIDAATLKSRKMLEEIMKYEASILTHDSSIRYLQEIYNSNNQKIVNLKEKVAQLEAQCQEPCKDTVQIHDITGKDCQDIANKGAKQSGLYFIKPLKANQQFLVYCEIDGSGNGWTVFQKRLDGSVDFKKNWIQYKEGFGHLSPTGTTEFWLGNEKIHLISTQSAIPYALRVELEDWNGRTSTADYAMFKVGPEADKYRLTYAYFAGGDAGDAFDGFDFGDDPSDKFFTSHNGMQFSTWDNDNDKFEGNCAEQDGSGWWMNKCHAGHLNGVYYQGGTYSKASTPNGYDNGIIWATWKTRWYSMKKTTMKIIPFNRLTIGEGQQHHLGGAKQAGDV
Assay: fibrinogen binding of expressed peptides (data not shown)

B1: S. iniae strain QMA136 M protein C-terminal amino acid sequence (309 amino acid peptide expressed from isolate QMA0136) (other)
chain: MAEIQEEANKKIAAVQTELENIDSENQSLSTANEQLKADLEQAARELDTLQSSYYTVENEKAELQKQLAEKDAKIAELEANNTELTATVADLTKALEAAKKEAEEKPALKAKVAELEKALAEAKGLGTKVAELEKDLEKAQAEAKDLETKLAETKAELEKVQAEKAELEATIEKMKKEHAEELDKLNALLADKEKLVEALNKEIEALKKDFDEKSNHSAQEKAKFQEELERLKKELAAKINMPMGNTKGMANAAGNAQTPANNGQNNAVKNQLPSTGDKAGNPFFTASAIAVMVGAGTLAYGRKRKEEE
notes: The expression construct is not described; also called QMA136 C-terminal fragment
- binding result: no binding
